This data set can be described thus: soluble on expression in E. coli; label from the status in PepcDB or PDB records.
Turning to “MGSDKIHHHHHHMLDPIEFIHNASSISKKSMNRLKLKTNPFSEKPIRGNTKFFVGRTSELSEIADILGAAQYGSVANAAIVGTKGIGKSSILNILYYASKRHNHWVVELEASQITARQFLIQLMYGIIKDNLFSVDGTLSSDYMKHSQKIIEIYKRLSNYSDKTPVHYPREKIERDLKYLLNEVKEENKLCVILIDEADQFAKRSCLGLLQFFHSFLYEDDILTFLAGPPTMVEDLTKISPAIRDRIPKIINMPPLTKEEAYDLIKRRLEDSQITGAKGYQPFSEQSIEKIIEECDGIPRRIIMTCSEAVSLGLKNGVDEIDDEIARNAMKNLGISVGHQILNHLTPAQSKIIKAMAELGGSSTVTELSGILNNSTGTIGTHLSDIYEMGYIYKERDGYNVYYTLSKELKDVLITKEDIS”, the “soluble on expression in E. coli” value is listed as “not soluble”.

For “MGSDKIHHHHHHMKRLRVTLAQLNPTLGDFEGNLKKAIEALRVAEDRGSDLLVFPELFLPGYPPEDLMLRLSFLRENRKYLQKFAQHTRNLGVTVLMGFIDSDEDAYNAAAVVKDGEILGVYRKISLPNYGVFDERRYFKPGEELLVVKIGNIKVGVTICEDIWNPVEPSASLSLGEGVHLIANLSASPYHVGKPVLRKDYLSMKAYDYHVAMAYCNMVGGQDELVFDGGSMVVDASGEVINYGKLFEEEIITVDLDLDENLRVSLVDPRRRYMKTQNYPVKTVEAGNLREKSGHFEPVVNPLPVREEEMFRALITGLRDYVRKNGFEKVVIGLSGGMDSSLVAVIATEALGKENVKGVLMPSMYTSKESIEDAQTLAKNLGIETFIIPITDVFHSYLETLKGVFAGREPDITEENLQARIRGNYLMALSNKFGWLVLTTGNKSEMATGYATLYGDMAGGFAVIKDVYKTDVYRIGRWYNSWRGKEIIPENIFVKPPTAELRPGQTDQEKLPPYEVLDEILRLYIEEGLDPEEIASKGFDRKTVLDVTEMIRKNEYKRKQAAIGVKISTRAFGKDWRMPITNRFKEPL”, the “soluble on expression in E. coli” value was “not soluble”. “MGSDKIHHHHHHMAKKTAVVDLGSNSIRMVIFEKTSRYGFYTTCEYKRKVRLGENAYNNGKILQEEAMQRAEDALAFFKQCALKHKCKKIFIVGTSALRDAPNSKNFIKRIKDNLSLNIRCIDGKSESYLGGLAALNLLSPFKDGTTLDIGGGSSELCLIKNNRIISCISLDIGTVRLKELFYDTGKMDSLEEFIKPILEQIPKEFCNQNLIAIGGSLRAISNSIMQKNSYPLKNLHDFRYMLDEEKGHILKIFNSNLDSLINFGIKKDRFDTIKEGIFIFLKIAEKIKAKQVITSGVGIREGVYLQDLLRPKITFPPNFNPSLKCLQDKFLQSKQKNKTPHFALQIFTTLKNLHKLNDNYKHTLLNAAKLCHIGEYLNFYFANEHSAHFVLGGLNYGFSHKEKALIASIIKLNGKKVNPYNLEPYKQLLPNIHTISWLNFILCLAKTLSANEDKIDFAFANNTLYIYQENKILNLPKDELKKIAKPATIALAINQKI”: the “soluble on expression in E. coli” value was “not soluble”. Under “MKPNLLPMNLQMFAEEDGGTNFTFDDFKAFVESNEEAQKFVQSQSQSAADKQLEAWKQNNLEKIKETTIKEYEESKKNKTPEQIKLEELQAEFEAEKALRVTSDNKAFVAEKIAGLDWDGDLKDSISQFMLNNLVSSDTEFTKKAVEGFTELLEAINDKHAEAIKNVEMTKAFGNKSQQTNMGTGNQTKSFENPEVALGQKLQAFID” stands “not soluble”; under “MTREAFAPYQCLATDLLKYLPSDQNDGSHDLAHIHRVWVNAHRIQRVEGGDLEILLAATVLHDCVAVEKHSPLRGQASTLSANKAASVLAEMGWPSGRVEQVVHAIKTHSYSAGFEPLTREACILQDSDRLDAIGAVGIARCFYVAGRMGSALYDFENPFAQQRAYQDGAYAIEHFQTKLLKLASGFKTQEGARLAAERHTRLETFLTQFMDEITGAGLEHHHHHH”, “soluble”; under “MLQALLDSKDFLALTLANPQTLGDEFSFTLGEHTRVNVWDTGVIVFEPAQPQGKDVILSCGVHGNETAPIELCNTLIKQLLQQKIIAKQRTLFLIGNPLAINNGTRIIDENMNRLFSGEHSNPPGLVNPERLRAKKLETYVDRFFKAAAAGRQRIHYDLHTAMRASKHEKFAIYPYRPGRAYSAEQIMFLAASGVDTVLFHHEPTTTFSYFSSEQYGADAFTIELGKVYPMGQNDMTRFIAAQEMFTRLITDKPLQLESFSTDKVNLYQVCRVINKHFDDFEFTFATDVENFRAFPKGFVLAREGGQEIKVEQEVESIVFPNAKVPIGNRTVICLIPSVAPDVRLEHHHHHH”, “soluble”. “GPLGSDDVEWVVGKDKPTYDEIFYTLSPVNGKITGANAKKEMVKSKLPNTVLGKIWKLADVDKDGLLDDEEFALANHLIKVKLEGHELPADLPPHLVPPSKRRHE”: the “soluble on expression in E. coli” value was “soluble”. Take “MALAHVSRRVISNQIRCFAAANQETSLVHVEKQFEAIEPEKRDKDAFMAAIATFKEKRGRTHVEFINTALKYVKEYGVHKDIDTYKGLLEVFPKGKMIPQTVFQKVFLHYPQQQNCAVKVLDEMEWHGVQPDKEIHDIVVNAFGEWNFATKKVKRMLYWMPKLKHSNKYLDRRHVEGKSLSPSELAGIALKMMSRDAASSISLLKLSDSSDPQQKWLATSQSPMQQILISELRKGDEVFVDAAKVYLQDRVIPFITLTGNTKLEPLNEFKNEDMDEDYTNWYADWQKQRGEAKRSIHEQDHETIFAMGAMYKDDNATAIRWIDNLQKTNPNMENLRFRVRLEGNPIISRK”: the “soluble on expression in E. coli” value was “not soluble”.

Take “MSLTNVVAYIRVSTKSQGDSGLGLEAQRDYIQRAAQANDWNVVGEFVDVVSGKLALEDRPEGAKALTMCKQHNAQLLVAKLDRLSRSVLHIAQLMEQVDFKVATMPQADKFQLHLFAALAQQEREFIATRTKEALASLQRRADAGDAVAQQKVANRAEAQAKGRAVADITAANNIRMSKINTYQTNIEPHLKSCLHDKISEGHHHHHH”: the “soluble on expression in E. coli” value is listed as “soluble”. For “MSLSDFLILSDPDLDTLGITTDEIQTALEAAIRAQIRATVHVAPKSALLPGDGRYVMTTLATGNSPALTVVKSVMVSPDNPARGLPGTEGVLLVQDSETGQLRALMQAGWITRMRTAGLSALVARRLGDPAARVVAFIGAGAQARAHLAALCDLFPLQRAVILGRGAENIARLSAAARARGLQAEIADNPHQAIADADLVVSSVTLDHQMTPFLDARWLKPGAFASLTDTGLPWQPDGMAALDPLYIDDLAQEAANPRPMIDPARVGGDLAALLGEDLHSTNVNRHDPSRRAGFLFRGPAIADFALAALALHRAQSLGAGRDTAWPDATREGHHHHHH”, the “soluble on expression in E. coli” value was “soluble”. As for “SRPADLLQLVLLLDLPRDLGGMGCSSPPCECHQEEDFRVTCKDIQRIPSLPPSTQTLKLIETHLRTIPSHAFSNLPNISRIYVSIDVTLQQLESHSFYNLSKVTHIEIRNTRNLTYIDPDALKELPLLKFLGIFNTGLKMFPDLTKVYSTDIFFILEITDNPYMTSIPVNAFQGLCNETLTLKLYNNGFTSVQGYAFNGTKLDAVYLNKNKYLTVIDKDAFGGVYSGPSLLLPLGRKSLSFETQKAPRSSMPS”, the entry is “soluble”; as for “MLLEERLSQISQIIDKEGSATIDFLAQKLEVSKDTIRRDLIKLESRKKLHRVHGGAIPIGKEAEILNYEERSNISTSLKKKIASKIKNLIKDHSTLIFDSSTTVEVAIKQLDNFSISTITNSLTNAILLSKYEMATVQLLPGKLNKNQLFLYGAETVEKLSQYQVDFTILGVFALSNNGLFIHTEEEGLVKRKMIQQGKQVIAIADHTKLNKEGFFKICDLKEIDYLITDEKIEGELMNNLNDNNVKVVTINELEHHHHHH”, “soluble”; as for “MGTEFNGLFDEWAHTYDSFVQGEDIQYKEVFAHYEDILEDVVNKSFGNVLEFGVGTGNLTNKLLLAGRTVYGIEPSREMRMIAKEKLPKEFSITEGDFLSFEVPNSIDTIVSTYAFHHLTDDEKNVAIAKYSQLLNKGGKIVFADTIFADQDAYDKTVETSKRKRFPPVSKRFANGILYTYSSYADYFLEHHHHHH”, “soluble”. As for “MTISEVSKKYELSADTLRYYERIGLIPPVNRNKSGIRSFTEEDCEWVNFIKCMRGAGLSIETLIEYVAMFQQGSSTIKARKELLIEQRNQLAKRIEEMQKTLERLNFKIDRYEEGIIEKEKVLKSSRNKKMEAVSYE”, the entry is “not soluble”; as for “MGSDKIHHHHHHMIIVAGTPGAGKTSVMTHTIKQLLNKGNKPAVVKIDCLYTDDDTRYGKLKIPTLVGLSKDMCPDHFAIYNLEEMAEWAEKEGVDTLIIETAGLCHRCAPYTKNSLGICVIDATSGPNTPRKVGPFLTSADVVAITKGDIISQAEREVFRERVLEMNPKCTIYDVNGLSGQGCAEISEEIMEAKDIVDLENEELRHNAPLCVCTLCVGETKVAKKHHRGVLRRIDGFTKYVGE”, “not soluble”; as for “MSLSTYILNTNDKARERLSLQHQLYAKSSLDLLSEVGPSAAMTALEIGCGSGDMTLELAKLIGREGSLLTIDLSQDQLDHTQQRTRTYSNIRFKVWDVNHLSDLGEKFDLIYCRMVLHHVADARSVILQMKNCLNSGGFVVCEEPSLFDSTFCSPPSPSYDQFTQWARSCFSKSNRDFQIAHRLEQEFSSCGFEIEHCSLFQPLLRTNKEKLIYSMALDDLTPQLLELGIAKREEIKQLHNELEDLAKTNSTMCWIRMHKIIAKLNEGHHHHHH”, “soluble”. “MVDIDSAVEAARRRGARRIVLQLPEGMLQYGLYIAKCFEEMLGGAAQVYLHADPTFGACDLHYGELDTTVRPDLIVHVGHSPYPAELAHEGLEPRGRVVYVRALSKSQLPLDALREAAGLLASRYGVRRVGIATTAQHTHLAEKAAEVLRGEGLEVAVPPGLRPYFGAAQVLGCDYRLARGVRADGFVYVGGGVFHPLGLYLATLKPVVQVDPYRGVSEDLTREGEKLYRSRLYRVSQSIGARRWGIIVGLKSGQYRPWLVEKLARAIESAGGEYLLVASEVTTLSQLVAIDNPWFEAFTVTSCPRLPTDDFWSYEKPVLTPGEAMMALEGRLEPYRFPWAAALEHHHHHH”: the “soluble on expression in E. coli” value was “not soluble”. “MEILSDMWKEKITFIGINIDDEKSWKKFSQKNIKWITLNDPKEAFGLYIRYKANGIPFYVLVTPDGRISDIWYGYNKDSLSERLKQGVK”: the “soluble on expression in E. coli” value is “not soluble”. With “MTQTVDIENTDNVLSRRDSNAETQQMLRQRFETQPDLMPAQLASELGIAELEVVTALPQAQRVFLPLAHMDELLQSLPEWGSLTTIVMLSGSVFEFKGDFPQGKFAHGYYNLYSKGDGLHGHLKLDGMRAIALISRPFRGSESHSINFFGPQGEVVFKVYLGRDKQRVLFPDQVRRFKALAATFAD”, the “soluble on expression in E. coli” value is on record as “soluble”. With “MGSDKIHHHHHHSRSGEKAAQQLVDYFIYQEKPETFSQTFREPKVLAEHLQTSRQQFQKQFFNSLKEMNAEVTETEAQKLSAELLAQVKKKASYQLVATKELNGQATITFQIKGLDFVTAIEDTTTALLQQTQQATQALDMQHTLAVLKKEIQQINVSHEPVELPLTVKQVEGQWYLPAVEQLRLNQFFLAFVTGKEDTDQLTEALDTILTQAEQKVVTADERTAIAGN”, the “soluble on expression in E. coli” value is given as “not soluble”. As for “MSLAFDTLFLNARFDGGTRHHIAVKDGRIAAITSVDQPPAGAETIDLKDALVVPGFVEGHIHLDTSFYGDAWRPHKPCADGFNVHERVAFQAQNMAEAAPMDVRARNQLDLCIGHGTTQMRSHVIVDGSVGLKSLETILRVREEYNGLIDIQLVAFPQSGILSSPGTAQLLDEAIGLGANLVGGLDPASFDRDVEKHLDVVFGVANKHGVDIDIHLHDMGTLGAFEIEQIAARTRALGMEGRVAVSHAYGLGDIPADYLKKVAEILARSGVAIMTNAPGARPFPPILALRNAGVTVFSGNDNIRDSWWPYGDGDMLRRATTLGYRSGFNIDEELRAAFDVVTASGAKALRLEGYGLRIGAKADFVALNAEHVPEAVVAVPQGRSVYKDGRLVAANGRIVGKSGEGHHHHHH”, the entry is “not soluble”.

(Values after the DeepSol protein solubility set.)
